Measurements as given in patent publication US20040180823A1.

Target: EphA4 receptor extracellular domain fused to a human Fc region (human)
Assay: inhibition of ephrin-A5 AP binding to EphA4

Sequence of EphA4 receptor extracellular domain fused to a human Fc region (human) (Q03137 20-547): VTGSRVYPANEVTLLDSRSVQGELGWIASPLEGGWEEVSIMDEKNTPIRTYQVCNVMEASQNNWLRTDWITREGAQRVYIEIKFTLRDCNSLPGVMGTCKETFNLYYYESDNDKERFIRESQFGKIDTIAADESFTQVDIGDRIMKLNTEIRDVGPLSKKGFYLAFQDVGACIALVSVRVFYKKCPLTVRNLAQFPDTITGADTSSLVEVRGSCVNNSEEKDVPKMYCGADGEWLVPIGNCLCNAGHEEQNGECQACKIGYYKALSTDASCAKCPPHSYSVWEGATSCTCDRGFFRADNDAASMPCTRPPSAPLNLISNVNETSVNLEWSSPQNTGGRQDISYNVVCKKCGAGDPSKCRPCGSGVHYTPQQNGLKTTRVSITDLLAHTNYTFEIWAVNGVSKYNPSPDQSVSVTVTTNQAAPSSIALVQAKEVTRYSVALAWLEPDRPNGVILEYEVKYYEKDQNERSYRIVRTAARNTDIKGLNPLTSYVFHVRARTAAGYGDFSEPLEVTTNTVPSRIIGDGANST

Row | Substance | concentration that almost completely inhibited ephrin-A5 AP binding | concentration required for similar levels of inhibition of ephrin-A5 AP binding
1 | KYL peptide (synthetic, biotinylated) | 1 µM | –
2 | APY peptide (synthetic, biotinylated) | – | 10 µM
3 | VTM peptide (synthetic, biotinylated) | – | 100 µM
